Assay results reported in FireProtDB (doi:10.1016/j.bpc.2008.08.008).
Where “and” joins values, the source holds several entries; their conditions need not be identical. Equal values may be shown once.

Details: Capra hircus, pH 6, Cacodylate 0.03 M, Potassium chloride 0.1 M, reversible: Yes; for denaturant midpoint (higher = more stable) / unfolding free energy: 25 °C, GdnHCl

Sequence of wild type, Q3LUG9 (Q3LUG9 entry or part of it): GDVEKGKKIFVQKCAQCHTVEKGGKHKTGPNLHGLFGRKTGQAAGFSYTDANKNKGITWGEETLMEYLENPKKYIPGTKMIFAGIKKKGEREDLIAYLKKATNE

wild type, Q3LUG9
denaturant midpoint (higher = more stable) (Absorbance): 2.7 M and 2.6 M
unfolding free energy (Absorbance): 9.49 kcal/mol and 9.39 kcal/mol
denaturant midpoint (higher = more stable) (CD): 2.5 M and 2.6 M
unfolding free energy (CD): 9.3 kcal/mol and 9.58 kcal/mol
heat capacity change of unfolding (Thermal, CD): 1.29 kcal/mol/K
